Results published in article PMC4284078 (Virology, 2014).

Molecular target: recombinant full-length HSP70 in fusion with N-terminal maltose binding protein (MBP) (UniProt P0DMV8 1-641)
Assay: SPR

Chain of recombinant full-length HSP70 in fusion with N-terminal maltose binding protein (MBP) (P0DMV8 whole entry, the tested form may be a part): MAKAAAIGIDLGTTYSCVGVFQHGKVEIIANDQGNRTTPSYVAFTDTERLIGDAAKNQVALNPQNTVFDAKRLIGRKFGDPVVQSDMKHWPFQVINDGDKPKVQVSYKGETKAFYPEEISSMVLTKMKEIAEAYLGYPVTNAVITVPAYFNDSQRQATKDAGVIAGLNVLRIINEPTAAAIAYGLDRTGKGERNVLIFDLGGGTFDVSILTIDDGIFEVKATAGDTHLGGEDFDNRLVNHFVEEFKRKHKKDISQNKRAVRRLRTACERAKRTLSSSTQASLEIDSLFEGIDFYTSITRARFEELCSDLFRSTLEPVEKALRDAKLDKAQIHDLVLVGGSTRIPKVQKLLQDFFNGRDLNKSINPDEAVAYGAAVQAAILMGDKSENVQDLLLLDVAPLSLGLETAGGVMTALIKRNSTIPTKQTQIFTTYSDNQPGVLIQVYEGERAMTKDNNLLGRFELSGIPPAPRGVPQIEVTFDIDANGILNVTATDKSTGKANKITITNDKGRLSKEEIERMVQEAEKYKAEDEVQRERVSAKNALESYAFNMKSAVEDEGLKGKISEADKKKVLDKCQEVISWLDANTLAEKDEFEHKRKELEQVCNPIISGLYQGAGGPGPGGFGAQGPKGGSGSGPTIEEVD

B1: NS5A domain I (domain or fragment)
chain: SGSWLRDIWDWICEVLSDFKTWLKAKLMPQLPGIPFVSCQRGYRGVWRGDGIMHTRCHCGAEITGHVKNGTMRIVGPRTCKNMWSGTFFINAYTTGPCTPLPAPNYKFALWRVSAEEYVEIRRVGDFHYVSGMTTDNLKCPCQIPSPEFFTELDGVRLHRFAPPCKPLLREEVSFRVGLHEYPVGSQLPCEPEPDVAVLTSMLTDPSHITAEA
Q: With B1 as the binder, how does the Kd read?
A: The Kd was 316 nM.
